Test results reported in patent US20230331848A1 (BIOSION, published 2023).
Positions count from the first letter of the chain named.

B1: mouse anti-PD-1 monoclonal antibody E1A9C8A7 (antibody, V domains shown)
VH: QVQLQQSGAEVVRPGVSVRISCKGSGYTFSDYVMHWMKQSHGESLEWIGVISTYHIPAVYNQKFKGKATMTVDKSSSTVYLELARLTSEDSAIYYCAREVYGDSYYFDVWGAGTTVTVSS
VL: DVLMTQIPLSLPVSLGDQVSISCRSSQSIVHSNGNTYLEWYLQKPGQSPKLLIYKVSNRFSGVPDRFSGSGSGTDFTLKISRVEAEDLGVYYCFQGSHVPYTFGGGTKLEIK
notes: Hybridoma-derived mouse mAb purified on Protein A; also called Mouse E1A9C8A7
B2: mouse anti-PD-1 monoclonal antibody E2G4E10B7 (antibody, V domains shown)
VH: QVQLQQSGAELVRPGVSVKISCKGSGYTFTDYVMHWVRQSHAKSLEWIGVISTHFGDGVYNQKFKGKATMTVDKSSSTAYMELARLTSEDSAIYYCAREVYGDSWYFDVWGAGTTVTVSS
VL: B1 VL with I7T, V19A, I29L, N33D, V83L
notes: Hybridoma-derived mouse mAb; also called Mouse E2G4E10B7
B3: mouse anti-PD-1 monoclonal antibody E1G5D1H1 (antibody, V domains shown)
VH: EVQLVESGGGLVKPGGSLKLSCAASGFTFSDFYMYWVRQTPEKRLEWVATISNSGTQTYYLDSVKGRFTISRDNAKNNLYLQMSSLKSEDTAMYYCARDYYRYDSWYFDVWGAGTTVTVSS
VL: DIVLTQSPASLAVSQGQRATISCRASESVDFYGTSLMQWFQLKPGQPPKLLIYAASNVESGVPARFSGSGSGTNFSLNIHPVEEDDIAMYFCQQSRKVPWTFGGGTNLEIK
notes: Hybridoma-derived mouse mAb; also called EIG5D1H1; E1G5DIH1

Key:
[1] = target: T1, human PD-1 expressed on GS-J2/PD-1 cells (Genscript) (human, UniProt Q15116 25-288); assay: flow cytometry on GS-J2/PD-1 cells
T1 construct: whole, on cells; also called cell-surface human PD-1
Procedure: In specific, the 293F-mouse PD-1 cells and GS-J2/PD-1 cells were respectively harvested from cell culture flasks, washed twice and re-suspended in PBS containing 2% v/v Fetal Bovine Serum (FACS buffer). Then, 2×10⁵ cells per well were incubated in 96 well-plates with 100 μl of the anti-PD1 antibodies or controls at various concentrations for 40 minutes on ice. […] Following an incubation of 40 minutes at 4° C. in dark, cells were washed three times and re-suspended in FACS buffer. Fluorescence was measured using a Becton Dickinson FACS Canto II-HTS equipment and plotted against antibody concentrations. Data was analyzed using GraphPad Prism software and EC₅₀ values were reported.
For the cell-based binding FACS, R-Phycoerythrin AffiniPure Goat Anti-human IgG Fcγ fragment specific (Cat#:109-115-098, Jackson ImmunoResearch) was used for the humanized antibodies, with 1:1000 dilution in FACS buffer, 100 μl/well.

[2] = target: T2, human PD-1-his protein prepared in-house (human, UniProt Q15116 25-167, biotin-labeled (sites not given)); assay: competitive ELISA: biotin human PD-1-his + antibody on coated Pembrolizumab (competitor)
T2 construct: also called biotin labeled human PD-1-his
Procedure: ELISA plates were washed once with wash buffer (PBST, PBS+0.05% Tween-20) and then blocked with 200 μl/well blocking buffer (5% w/v non-fatty milk in PBST) for 2 hours at 37° C. […] After incubation at 37° C. for 40 minutes, plates were washed using wash buffer, added and incubated with 100 μl/well Peroxidase Streptavidin for 40 minutes at 37° C. Plates were washed again using wash buffer. Finally, TMB was added and the reaction was stopped using 1M H₂SO₄. The absorbance was read on a microplate reader using dual wavelength mode with 450 nm for TMB and 630 nm as the reference wavelength, and the OD (450-630) values were plotted against antibody concentrations. Data was analyzed using Graphpad Prism software and IC₅₀ values were reported.

[3] = target: T3, cynomolgus PD-1-his protein (Cat#:PD1-05223, Acro biosystems Inc.) (cynomolgus, UniProt B0LAJ3 25-170); assay: indirect ELISA on coated cynomolgus PD-1-his; unit from the axis 'Con of mAb, nM.'
T3 construct: Bought protein used in Biacore and indirect ELISA; also called monkey PD-1; Cyno PD-1
Procedure: (§1) Briefly, 96-well micro plates were coated with 100 μl 2 μg/ml mouse PD-1-his (Cat#:50124-M08H, Sino Biological Inc) or 2 μg,/ml cynomolgus PD-1-his (Cat#:PD1-05223, Acro biosystems Inc.) in carbonate/bicarbonate buffer (pH 9.6) for 2 hours at 37° C. Plates were washed once with wash buffer (PBST, PBS+0.05% Tween-20) and then blocked with 200 μl blocking buffer (5% w/v non-fatty milk in PBST) for 2 hours at 37° C. […] ELISA plates were washed 4 times and incubated with Peroxidase AffiniPure goat anti-mouse IgG, Fcγ Fragment Specific (1:5000 dilution in PBST buffer, Cat#:115-035-071, Jackson ImmunoResearch Laboratories, Inc., 100 μl/well) or Peroxidase AffiniPure F(ab′)₂ Fragment Goat Anti-Human IgG, Fcγ fragment specific (Cat#:109-036-098, Jackson ImmunoResearch, for the controls) for 40 minutes at 37° C. After a final wash, plates were incubated with 100 μl/well TMB (Cat#:TMB-S-002, innoreagents) at room temperature. The reaction was stopped 3-10 minutes later with 50 μl/well 1M H₂SO₄, and the absorbance was read on a microplate reader using dual wavelength mode with 450 nm for TMB and 630 nm as the reference wavelength. Then the OD (450-630) values were plotted against antibody concentrations. Data was analyzed using GraphPad Prism software and EC₅₀ values were reported.

[4] = target: T3, cynomolgus PD-1-his protein …; assay: indirect ELISA on coated cynomolgus PD-1-his
[5] = target: T4, in house made human PD-1-Fc protein (human, biotin-labeled (sites not given)); assay: competitive ELISA: antibody pre-mixed with biotin-labeled human PD-1-Fc, added to coated human PD-L1-Fc (blocked ligand); unit from the axis 'Con of mAb, nM.'
T4 construct: also called biotin-labeled human PD-1-Fc
Procedure: The activities of the anti-PD1 antibodies of the disclosure to block PD-L1-PD1 binding were measured in a competitive ELISA.
Briefly, 100 μl human PD-L1-Fc protein (prepared in-house with SEQ ID NO: 28) at 2 μg/mL in carbonate/bicarbonate buffer (pH 9.6) was coated on 96-well micro plates overnight at 4° C., Plates were washed with wash buffer (PBS+0.05% w/v Tween-20, PBST), and blocked with 5% w/v non-fatty milk in PBST for 2 hours at 37° C. […] After incubation at 37° C. for 40 minutes, plates were washed using wash buffer. […] Plates were washed again using wash buffer. Finally, TMB was added and the reaction was stopped using 1M H₂SO₄. The absorbance was read on a microplate reader using dual wavelength mode with 450 nm for TMB and 630 nm as the reference wavelength, then the OD (450-630) values were plotted against antibody concentrations. Data was analyzed using Graphpad Prism software and IC₅₀ values were reported.

[6] = target: T3, cynomolgus PD-1-his protein …; assay: indirect ELISA on coated cynomolgus PD-1-his; unit from the axis 'Con of mAb, nM.'; remark: listed apart in the source
Procedure: as §1

[7] = target: T5, recombinant mouse PD-1-his protein (Cat#:50124-M08H, Sino Biological Inc) (mouse, UniProt Q02242 25-167); assay: indirect ELISA on coated mouse PD-1-his
T5 construct: Bought protein used in Biacore and indirect ELISA; not shown: his tag
T5 sequence (looked up): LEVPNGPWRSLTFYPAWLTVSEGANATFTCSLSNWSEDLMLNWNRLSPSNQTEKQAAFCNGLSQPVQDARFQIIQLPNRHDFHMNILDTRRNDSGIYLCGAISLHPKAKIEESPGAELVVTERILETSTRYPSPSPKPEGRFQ
Procedure: as §1

| Binder | EC50 [1] [nM] | IC50 [2] [nM] | EC50 [3] [nM] | EC50 [4] [nM] | IC50 [5] [nM] | EC50 [6] [nM] | binding result [7] |
| --- | --- | --- | --- | --- | --- | --- | --- |
| B1 | 0.44 | 0.48 | 0.121 | 0.07 | 0.45 | – | – |
| B2 | – | – | 0.166 | – | 0.428 | – | – |
| B3 | – | – | – | – | – | 0.142 | no binding (tested: 66.7 nM) |
